Publication PMC11096372

Legend:
[1] = biological target: Cas11b, small subunit of the Synechocystis sp. PCC 6714 type I-B Cascade (Synechocystis sp. PCC 6714); assay: cryo-EM structure; SEC-purified Cascade with crRNA and a 59-bp ATG-PAM dsDNA target; full R-loop (higher than 3.6 Å) and partial R-loop (3.8 Å) states
[2] = biological target: Cas7b, backbone subunit of the Synechocystis sp. PCC 6714 type I-B Cascade (Synechocystis sp. PCC 6714); assay: as above

stoichiometry N [1]	stoichiometry N [2]	Substance
3		Cas11b, small subunit of the Synechocystis sp. PCC 6714 type I-B Cascade (natural protein)
	7	Cas7b, backbone subunit of the Synechocystis sp. PCC 6714 type I-B Cascade (natural protein)
